The labels stand for the following.
T1: FcγRIIa R (human, UniProt P12318 34-217)
T1 construct: extracellular domain; also called FcgRIIa R type; 2aR
T1 sequence (looked up): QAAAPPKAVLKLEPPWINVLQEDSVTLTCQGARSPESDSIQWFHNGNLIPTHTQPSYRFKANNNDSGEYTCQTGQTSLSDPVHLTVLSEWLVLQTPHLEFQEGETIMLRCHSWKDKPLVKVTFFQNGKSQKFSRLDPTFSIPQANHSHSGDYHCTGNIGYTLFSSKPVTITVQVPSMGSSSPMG

B1: GpH7-B3 variant K334_12R/GpL16-k0 (antibody, human IgG1, kappa)
heavy: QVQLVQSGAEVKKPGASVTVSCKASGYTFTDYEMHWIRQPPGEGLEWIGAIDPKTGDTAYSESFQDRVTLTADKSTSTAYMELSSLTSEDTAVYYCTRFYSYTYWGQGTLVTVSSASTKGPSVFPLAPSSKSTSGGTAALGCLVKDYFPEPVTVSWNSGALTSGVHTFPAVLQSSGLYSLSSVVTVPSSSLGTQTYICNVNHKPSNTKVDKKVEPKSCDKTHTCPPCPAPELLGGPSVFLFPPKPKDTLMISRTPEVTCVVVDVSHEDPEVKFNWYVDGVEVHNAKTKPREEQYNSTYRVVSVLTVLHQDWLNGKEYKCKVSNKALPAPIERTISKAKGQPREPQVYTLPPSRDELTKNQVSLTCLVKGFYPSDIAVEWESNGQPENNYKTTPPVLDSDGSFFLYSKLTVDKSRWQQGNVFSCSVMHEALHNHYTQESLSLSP
light: DIVMTQSPLSLPVTPGEPASISCQASESLVHSNRNTYLHWYLQKPGQSPQLLIYKVSNRFSGVPDRFSGSGSGTDFTLKISRVEAEDVGVYYCSQNTHVPPTFGQGTKVEIERTVAAPSVFIFPPSDEQLKSGTASVVCLLNNFYPREAKVQWKVDNALQSGNSQESVTEQDSKDSTYSLSSTLTLSKADYEKHKVYACEVTHQGLSSPVTKSFNRGEC
notes: also called Ho Ab K334_12R
B2: GpH7-A5/GpH7-B3 variant N325_01G/GpL16-k0 (antibody, human IgG1, kappa)
heavy 1: not shown
heavy 2: not shown
light: B1 light
notes: also called He Ab N325_01G
B3: GpH7-B3 variant N325_06M/GpL16-k0 (antibody, human IgG1, kappa)
heavy: not shown
light: B1 light
notes: also called Ho Ab N325_06M
B4: GpH7-B3 variant L328_10E/GpL16-k0 (antibody, human IgG1, kappa)
heavy: not shown
light: B1 light
notes: also called Ho Ab L328_10E
B5: GpH7-A5/GpH7-B3 variant A330_15Y/GpL16-k0 (antibody, human IgG1, kappa)
heavy 1: not shown
heavy 2: not shown
light: B1 light
notes: also called He Ab A330_15Y
B6: GpH7-A5/GpH7-B3 variant E333_07I/GpL16-k0 (antibody, human IgG1, kappa)
heavy 1: not shown
heavy 2: not shown
light: B1 light
notes: also called He Ab E333_07I
B7: GpH7-B3 variant N325_08L/GpL16-k0 (antibody, human IgG1, kappa)
heavy: not shown
light: B1 light
notes: also called Ho Ab N325_08L
B8: GpH7-B3 variant N325_03V/GpL16-k0 (antibody, human IgG1, kappa)
heavy: not shown
light: B1 light
notes: also called Ho Ab N325_03V
B9: GpH7-B3 variant L328_09D/GpL16-k0 (antibody, human IgG1, kappa)
heavy: not shown
light: B1 light
notes: also called Ho Ab L328_09D
B10: GpH7-B3 variant P238_16H/GpL16-k0 (antibody, human IgG1, kappa)
heavy: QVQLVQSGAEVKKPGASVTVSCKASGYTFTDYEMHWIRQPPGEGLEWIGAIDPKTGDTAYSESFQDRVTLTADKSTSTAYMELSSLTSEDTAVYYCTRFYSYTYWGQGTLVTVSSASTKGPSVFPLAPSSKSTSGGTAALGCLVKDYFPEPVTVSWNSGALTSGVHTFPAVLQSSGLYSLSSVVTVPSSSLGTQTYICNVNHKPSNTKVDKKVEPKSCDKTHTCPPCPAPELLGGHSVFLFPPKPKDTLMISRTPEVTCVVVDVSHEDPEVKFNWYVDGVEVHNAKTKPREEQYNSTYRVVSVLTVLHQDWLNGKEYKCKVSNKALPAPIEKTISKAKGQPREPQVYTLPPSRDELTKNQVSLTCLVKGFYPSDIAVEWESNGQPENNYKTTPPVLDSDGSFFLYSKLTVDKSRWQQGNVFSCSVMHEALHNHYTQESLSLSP
light: B1 light
notes: also called Ho Ab P238_16H
B11: GpH7-B3 variant N325_15Y/GpL16-k0 (antibody, human IgG1, kappa)
heavy: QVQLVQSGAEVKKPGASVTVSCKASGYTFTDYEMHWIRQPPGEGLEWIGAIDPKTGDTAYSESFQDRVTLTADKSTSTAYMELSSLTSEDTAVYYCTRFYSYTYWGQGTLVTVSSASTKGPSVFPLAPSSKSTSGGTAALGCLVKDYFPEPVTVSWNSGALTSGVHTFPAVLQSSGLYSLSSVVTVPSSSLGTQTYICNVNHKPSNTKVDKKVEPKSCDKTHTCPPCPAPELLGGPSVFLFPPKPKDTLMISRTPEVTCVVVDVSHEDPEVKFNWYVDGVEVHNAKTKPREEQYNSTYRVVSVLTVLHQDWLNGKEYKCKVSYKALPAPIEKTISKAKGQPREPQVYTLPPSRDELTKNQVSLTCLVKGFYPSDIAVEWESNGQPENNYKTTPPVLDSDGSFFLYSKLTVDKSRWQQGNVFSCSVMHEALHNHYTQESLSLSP
light: B1 light
notes: also called Ho Ab N325_15Y
B12: GpH7-A5/GpH7-B3 variant A327_10E/GpL16-k0 (antibody, human IgG1, kappa)
heavy 1: not shown
heavy 2: not shown
light: B1 light
notes: also called He Ab A327_10E
B13: GpH7-B3 variant P238_09D/GpL16-k0 (antibody, human IgG1, kappa)
heavy: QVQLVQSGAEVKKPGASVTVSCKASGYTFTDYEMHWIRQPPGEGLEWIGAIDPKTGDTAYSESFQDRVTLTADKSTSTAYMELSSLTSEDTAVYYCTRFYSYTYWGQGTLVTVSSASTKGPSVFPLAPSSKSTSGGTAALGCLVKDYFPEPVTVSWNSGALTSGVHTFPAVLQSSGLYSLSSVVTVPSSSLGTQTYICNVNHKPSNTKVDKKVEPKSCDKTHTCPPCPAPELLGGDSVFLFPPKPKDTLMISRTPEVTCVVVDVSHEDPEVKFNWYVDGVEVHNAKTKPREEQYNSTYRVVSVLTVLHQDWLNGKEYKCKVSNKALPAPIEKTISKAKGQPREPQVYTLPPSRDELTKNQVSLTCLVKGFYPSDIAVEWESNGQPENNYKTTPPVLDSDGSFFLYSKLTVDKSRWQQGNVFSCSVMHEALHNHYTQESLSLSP
light: B1 light
notes: also called Ho Ab P238_09D
B14: GpH7-B3 variant P238_15Y/GpL16-k0 (antibody, human IgG1, kappa)
heavy: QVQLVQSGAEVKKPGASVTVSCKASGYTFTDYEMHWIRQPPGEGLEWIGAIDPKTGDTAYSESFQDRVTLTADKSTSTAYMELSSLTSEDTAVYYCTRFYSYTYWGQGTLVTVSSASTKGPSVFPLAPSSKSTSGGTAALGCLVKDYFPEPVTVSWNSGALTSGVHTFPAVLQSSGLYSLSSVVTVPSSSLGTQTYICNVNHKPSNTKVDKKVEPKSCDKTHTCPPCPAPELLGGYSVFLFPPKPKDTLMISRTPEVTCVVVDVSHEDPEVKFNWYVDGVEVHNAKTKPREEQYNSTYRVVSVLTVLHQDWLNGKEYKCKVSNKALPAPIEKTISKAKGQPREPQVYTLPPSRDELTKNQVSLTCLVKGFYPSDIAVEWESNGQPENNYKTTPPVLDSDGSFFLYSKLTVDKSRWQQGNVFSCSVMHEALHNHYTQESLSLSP
light: B1 light
notes: also called Ho Ab P238_15Y
B15: GpH7-B3 variant L235_09D/GpL16-k0 (antibody, human IgG1, kappa)
heavy: not shown
light: B1 light
notes: also called Ho Ab L235_09D
B16: GpH7-B3 variant P238_20W/GpL16-k0 (antibody, human IgG1, kappa)
heavy: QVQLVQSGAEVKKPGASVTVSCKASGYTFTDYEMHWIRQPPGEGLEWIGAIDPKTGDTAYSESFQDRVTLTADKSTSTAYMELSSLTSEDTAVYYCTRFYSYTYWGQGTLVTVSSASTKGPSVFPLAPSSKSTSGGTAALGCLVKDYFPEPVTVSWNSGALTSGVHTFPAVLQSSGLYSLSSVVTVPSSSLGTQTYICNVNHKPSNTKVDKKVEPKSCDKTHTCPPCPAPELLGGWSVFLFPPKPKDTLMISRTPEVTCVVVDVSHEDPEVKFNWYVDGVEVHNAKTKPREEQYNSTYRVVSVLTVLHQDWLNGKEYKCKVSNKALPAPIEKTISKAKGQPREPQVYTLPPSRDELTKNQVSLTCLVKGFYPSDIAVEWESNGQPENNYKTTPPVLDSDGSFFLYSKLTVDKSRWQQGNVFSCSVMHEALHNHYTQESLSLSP
light: B1 light
notes: also called Ho Ab P238_20W
B17: GpH7-B3 variant P331_02A/GpL16-k0 (antibody, human IgG1, kappa)
heavy: not shown
light: B1 light
notes: also called Ho Ab P331_02A
B18: GpH7-B3 variant K334_19Q/GpL16-k0 (antibody, human IgG1, kappa)
heavy: not shown
light: B1 light
notes: also called Ho Ab K334_19Q
B19: GpH7-A5/GpH7-B3 variant A330_05P/GpL16-k0 (antibody, human IgG1, kappa)
heavy 1: not shown
heavy 2: not shown
light: B1 light
notes: also called He Ab A330_05P
B20: GpH7-B3 variant L235_04F/GpL16-k0 (antibody, human IgG1, kappa)
heavy: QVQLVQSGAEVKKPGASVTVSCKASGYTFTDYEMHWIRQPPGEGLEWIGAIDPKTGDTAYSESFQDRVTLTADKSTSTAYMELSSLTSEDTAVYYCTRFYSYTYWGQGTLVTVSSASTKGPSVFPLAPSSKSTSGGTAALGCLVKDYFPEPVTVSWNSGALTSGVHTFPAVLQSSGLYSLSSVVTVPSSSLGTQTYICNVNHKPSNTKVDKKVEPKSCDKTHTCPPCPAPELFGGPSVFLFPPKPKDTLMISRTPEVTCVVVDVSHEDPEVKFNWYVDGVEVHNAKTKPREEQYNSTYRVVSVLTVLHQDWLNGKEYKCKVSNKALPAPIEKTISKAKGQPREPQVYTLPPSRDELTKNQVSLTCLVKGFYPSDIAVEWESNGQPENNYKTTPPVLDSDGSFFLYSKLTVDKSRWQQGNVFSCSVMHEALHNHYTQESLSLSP
light: B1 light
notes: also called Ho Ab L235_04F
B21: GpH7-B3 variant L234_10E/GpL16-k0 (antibody, human IgG1, kappa)
heavy: not shown
light: B1 light
notes: also called Ho Ab L234_10E
B22: GpH7-B3 variant P238_10E/GpL16-k0 (antibody, human IgG1, kappa)
heavy: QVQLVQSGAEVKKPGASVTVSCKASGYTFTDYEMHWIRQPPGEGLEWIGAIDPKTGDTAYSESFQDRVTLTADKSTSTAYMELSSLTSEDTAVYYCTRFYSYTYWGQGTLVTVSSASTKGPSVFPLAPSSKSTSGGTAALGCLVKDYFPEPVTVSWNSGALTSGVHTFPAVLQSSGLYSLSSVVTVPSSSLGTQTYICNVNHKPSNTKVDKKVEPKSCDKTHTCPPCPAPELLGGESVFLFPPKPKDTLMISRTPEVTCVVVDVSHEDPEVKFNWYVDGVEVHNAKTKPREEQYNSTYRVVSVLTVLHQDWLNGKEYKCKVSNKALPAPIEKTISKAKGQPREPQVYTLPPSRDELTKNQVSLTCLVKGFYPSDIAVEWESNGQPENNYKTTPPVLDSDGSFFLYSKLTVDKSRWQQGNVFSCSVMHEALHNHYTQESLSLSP
light: B1 light
notes: also called Ho Ab P238_10E
B23: GpH7-B3 variant P331_04F/GpL16-k0 (antibody, human IgG1, kappa)
heavy: not shown
light: B1 light
notes: also called Ho Ab P331_04F
B24: GpH7-B3 variant N325_14T/GpL16-k0 (antibody, human IgG1, kappa)
heavy: not shown
light: B1 light
notes: also called Ho Ab N325_14T
B25: GpH7-B3 variant P271_10E/GpL16-k0 (antibody, human IgG1, kappa)
heavy: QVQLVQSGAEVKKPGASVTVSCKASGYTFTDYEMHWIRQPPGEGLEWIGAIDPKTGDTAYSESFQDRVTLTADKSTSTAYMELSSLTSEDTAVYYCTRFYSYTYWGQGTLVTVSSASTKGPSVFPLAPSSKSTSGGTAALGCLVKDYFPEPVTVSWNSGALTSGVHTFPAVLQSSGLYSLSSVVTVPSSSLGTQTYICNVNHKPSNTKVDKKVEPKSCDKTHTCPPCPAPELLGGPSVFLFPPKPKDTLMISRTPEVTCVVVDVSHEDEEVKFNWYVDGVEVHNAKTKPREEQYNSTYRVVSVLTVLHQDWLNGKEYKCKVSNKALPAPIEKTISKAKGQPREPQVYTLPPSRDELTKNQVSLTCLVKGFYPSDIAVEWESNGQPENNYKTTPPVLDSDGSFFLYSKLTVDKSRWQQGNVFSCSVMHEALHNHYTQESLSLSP
light: B1 light
notes: also called Ho Ab P271_10E
B26: GpH7-B3 variant L328_14T/GpL16-k0 (antibody, human IgG1, kappa)
heavy: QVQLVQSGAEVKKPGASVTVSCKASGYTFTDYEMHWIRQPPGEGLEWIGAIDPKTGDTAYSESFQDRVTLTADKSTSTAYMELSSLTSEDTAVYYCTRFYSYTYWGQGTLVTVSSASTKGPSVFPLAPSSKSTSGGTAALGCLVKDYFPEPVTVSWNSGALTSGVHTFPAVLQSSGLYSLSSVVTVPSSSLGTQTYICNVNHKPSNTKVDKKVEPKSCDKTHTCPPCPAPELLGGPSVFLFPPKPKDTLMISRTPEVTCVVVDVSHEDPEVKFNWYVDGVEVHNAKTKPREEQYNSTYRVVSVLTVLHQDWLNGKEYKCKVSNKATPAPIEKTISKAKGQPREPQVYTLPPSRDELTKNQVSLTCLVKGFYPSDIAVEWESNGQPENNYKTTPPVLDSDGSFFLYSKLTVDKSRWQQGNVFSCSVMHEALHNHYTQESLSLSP
light: B1 light
notes: also called Ho Ab L328_14T
B27: GpH7-B3 variant L234_09D/GpL16-k0 (antibody, human IgG1, kappa)
heavy: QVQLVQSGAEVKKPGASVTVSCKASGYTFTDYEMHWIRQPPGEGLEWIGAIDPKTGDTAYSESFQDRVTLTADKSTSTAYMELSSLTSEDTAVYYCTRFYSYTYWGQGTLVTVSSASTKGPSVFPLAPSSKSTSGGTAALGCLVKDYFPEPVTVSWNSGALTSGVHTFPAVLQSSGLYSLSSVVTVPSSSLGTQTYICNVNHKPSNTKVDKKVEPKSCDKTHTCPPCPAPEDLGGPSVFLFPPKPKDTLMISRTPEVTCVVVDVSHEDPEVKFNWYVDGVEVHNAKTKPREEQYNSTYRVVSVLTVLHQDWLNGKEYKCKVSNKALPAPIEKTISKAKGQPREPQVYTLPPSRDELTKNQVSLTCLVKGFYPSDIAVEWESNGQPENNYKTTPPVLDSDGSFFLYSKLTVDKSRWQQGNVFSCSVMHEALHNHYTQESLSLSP
light: B1 light
notes: also called Ho Ab L234_09D

For the test, the target named is T1, FcγRIIa R. The test can be described thus: SPR (Biacore), captured antibody, FcγR as analyte; relative binding activity. Background: In SPR one partner is held on a chip, and binding of the other changes the refractive index at the surface.
B1: the Ho/Con_2aR was 110 % (GpH7-B3/GpL16-k0 = 100).
Consider B2, for which the He/Con_2aR is 107 % (GpH7-A5/GpH7-B3/GpL16-k0 = 100).
For the molecule B3, the Ho/Con_2aR was 124 % (GpH7-B3/GpL16-k0 = 100).
Same read-out and setting: under B4 stands 48.1 % (GpH7-B3/GpL16-k0 = 100).
For B5, the He/Con_2aR was 102 % (GpH7-A5/GpH7-B3/GpL16-k0 = 100).
Turning to B6, the He/Con_2aR was 104 % (GpH7-A5/GpH7-B3/GpL16-k0 = 100).
Consider B7, for which the Ho/Con_2aR was 95 % (GpH7-B3/GpL16-k0 = 100).
Regarding B8, the Ho/Con_2aR is 37.8 % (GpH7-B3/GpL16-k0 = 100).
Still for that read-out and setting: under B9 stands 68.8 % (GpH7-B3/GpL16-k0 = 100); under B10, 25.5 % (GpH7-B3/GpL16-k0 = 100); under B11, 42.6 % (GpH7-B3/GpL16-k0 = 100).
In the case of B12, the He/Con_2aR was 110 % (GpH7-A5/GpH7-B3/GpL16-k0 = 100).
Regarding B13, the Ho/Con_2aR was 13 % (GpH7-B3/GpL16-k0 = 100).
On the same count and under the same terms, under B14 stands 95.9 % (GpH7-B3/GpL16-k0 = 100).
Still for that read-out and setting: with B15 the figure was 73 % (GpH7-B3/GpL16-k0 = 100).
Still for that read-out and setting: under B16 stands 25.7 % (GpH7-B3/GpL16-k0 = 100).
Consider B17, for which the Ho/Con_2aR is 102 % (GpH7-B3/GpL16-k0 = 100).
Still for that read-out and setting: with B18 the figure was 108 % (GpH7-B3/GpL16-k0 = 100).
On to B19, for which the He/Con_2aR was 115 % (GpH7-A5/GpH7-B3/GpL16-k0 = 100).
In the case of B20, the Ho/Con_2aR is 98.9 % (GpH7-B3/GpL16-k0 = 100).
The same measure, in the same setting: under B21 stands 39.9 % (GpH7-B3/GpL16-k0 = 100).
Still for that read-out and setting: under B22 stands 21.4 % (GpH7-B3/GpL16-k0 = 100).
On the same count and under the same terms, with B23 the figure was 106 % (GpH7-B3/GpL16-k0 = 100); with B24, 60.2 % (GpH7-B3/GpL16-k0 = 100); with B25, 88.8 % (GpH7-B3/GpL16-k0 = 100).
As for B26, the Ho/Con_2aR is 118 % (GpH7-B3/GpL16-k0 = 100).
Same read-out and setting: with B27 the figure was 42.8 % (GpH7-B3/GpL16-k0 = 100).

The record behind these values is patent publication US20150344570A1 (published 2015).
